Measured values: paper PMC2997469 (Bioorganic & medicinal chemistry letters, 2010)
No end group written: not given here.

What was measured:
cIAP-1 BIR3 protein = target: T1, cIAP-1 BIR3 protein; assay: fluorescence polarisation
T1 chain: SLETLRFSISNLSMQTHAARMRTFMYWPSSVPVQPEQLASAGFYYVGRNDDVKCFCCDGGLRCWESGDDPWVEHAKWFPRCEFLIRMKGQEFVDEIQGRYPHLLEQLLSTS

[1] = target: T2, XIAP protein containing linker-BIR2–BIR3; assay: fluorescence polarisation
T2 chain: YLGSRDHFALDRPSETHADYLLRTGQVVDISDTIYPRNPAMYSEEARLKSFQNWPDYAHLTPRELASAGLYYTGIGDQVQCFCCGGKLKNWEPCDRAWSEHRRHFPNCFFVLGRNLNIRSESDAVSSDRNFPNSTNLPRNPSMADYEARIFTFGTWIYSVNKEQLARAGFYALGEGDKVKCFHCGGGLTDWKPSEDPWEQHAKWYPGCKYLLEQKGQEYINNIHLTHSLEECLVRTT

AKPF (also: cyclopeptidic structure not given here) [PSmac-21 (compound 1), cyclopeptidic Smac mimetic]
Ki (cIAP-1 BIR3 protein): 84 ± 9 nM | IC50 site 1 [1]: 1 nM | IC50 site 2 [1]: 481 nM
